Experimental data: patent publication US20170112904A1

Experiments:
Assay in all cases: cell-based or functional assay
[1] = target: T1, human glucose-dependent insulinotropic polypeptide receptor (human) (UniProt P48546)
T1 sequence (looked up): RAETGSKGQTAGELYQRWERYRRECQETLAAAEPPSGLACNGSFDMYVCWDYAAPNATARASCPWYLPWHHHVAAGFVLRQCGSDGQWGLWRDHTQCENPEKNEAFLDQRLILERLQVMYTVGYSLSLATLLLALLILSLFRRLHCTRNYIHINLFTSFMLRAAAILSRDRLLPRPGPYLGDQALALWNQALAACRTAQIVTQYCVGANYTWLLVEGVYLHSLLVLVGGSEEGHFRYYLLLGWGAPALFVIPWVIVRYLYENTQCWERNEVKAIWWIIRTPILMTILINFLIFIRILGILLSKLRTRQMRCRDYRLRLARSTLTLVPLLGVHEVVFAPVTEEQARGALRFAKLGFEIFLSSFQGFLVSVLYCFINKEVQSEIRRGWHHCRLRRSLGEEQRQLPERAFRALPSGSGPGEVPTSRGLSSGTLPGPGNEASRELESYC

[2] = target: human Glucagon-Like Peptide-1 receptor (human) (UniProt P43220)
[3] = target: recombinant human glucagon receptor (human) (UniProt P47871)
recombinant human glucagon receptor (human), sequence (P47871 26-477): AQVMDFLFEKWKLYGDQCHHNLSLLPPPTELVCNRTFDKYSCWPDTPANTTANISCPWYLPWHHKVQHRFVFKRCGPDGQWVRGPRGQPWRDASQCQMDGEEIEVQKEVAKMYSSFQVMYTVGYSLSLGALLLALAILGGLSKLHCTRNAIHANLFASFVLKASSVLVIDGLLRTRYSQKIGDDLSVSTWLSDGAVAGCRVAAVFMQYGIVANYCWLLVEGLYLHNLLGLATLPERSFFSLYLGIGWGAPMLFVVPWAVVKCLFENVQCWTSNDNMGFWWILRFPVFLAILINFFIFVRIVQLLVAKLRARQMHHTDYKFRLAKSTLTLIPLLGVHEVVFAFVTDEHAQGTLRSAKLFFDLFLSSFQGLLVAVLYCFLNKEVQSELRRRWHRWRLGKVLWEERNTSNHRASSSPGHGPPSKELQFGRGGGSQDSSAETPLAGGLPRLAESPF

human Glucagon-Like Peptide-1 receptor (human), sequence (P43220 24-463): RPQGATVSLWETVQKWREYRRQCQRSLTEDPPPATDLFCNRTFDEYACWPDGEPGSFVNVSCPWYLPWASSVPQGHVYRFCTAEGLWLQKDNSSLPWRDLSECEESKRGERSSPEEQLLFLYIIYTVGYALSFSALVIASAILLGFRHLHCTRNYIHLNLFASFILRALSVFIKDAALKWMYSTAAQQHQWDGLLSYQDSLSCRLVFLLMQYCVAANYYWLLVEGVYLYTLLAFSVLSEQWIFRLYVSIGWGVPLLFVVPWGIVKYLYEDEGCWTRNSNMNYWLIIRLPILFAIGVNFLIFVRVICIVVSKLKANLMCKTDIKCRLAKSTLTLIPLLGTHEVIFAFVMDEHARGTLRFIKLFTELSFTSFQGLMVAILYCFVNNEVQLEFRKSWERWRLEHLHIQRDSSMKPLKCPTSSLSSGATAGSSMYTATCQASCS
dulaglutide (Fc fusion), sequence (chain): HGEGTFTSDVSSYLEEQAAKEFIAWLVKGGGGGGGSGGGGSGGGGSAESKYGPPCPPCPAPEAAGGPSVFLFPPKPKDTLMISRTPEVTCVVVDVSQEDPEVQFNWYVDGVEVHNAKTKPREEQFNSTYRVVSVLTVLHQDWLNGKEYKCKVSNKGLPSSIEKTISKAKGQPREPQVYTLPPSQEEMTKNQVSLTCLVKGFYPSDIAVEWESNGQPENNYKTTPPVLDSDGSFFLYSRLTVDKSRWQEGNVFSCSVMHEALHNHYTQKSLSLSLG

Substance: dulaglutide (Fc fusion)
- EC50, GIP Receptor Assay; sample C6.5-4 C.-4 wk [1]: > 100 nM
- EC50, GIP Receptor Assay; sample C6.5-40 C.-4 wk [1]: > 100 nM
- EC50, GIP Receptor Assay; sample C6.5MT-4 C.-4 wk [1]: > 100 nM
- EC50, GIP Receptor Assay; sample C6.5MT-40 C.-4 wk [1]: > 100 nM
- EC50, GLP-1 Receptor Assay; sample C6.5-4 C.-4 wk [2]: 0.37 nM
- EC50, GLP-1 Receptor Assay; sample C6.5-40 C.-4 wk [2]: 0.31 nM
- EC50, GLP-1 Receptor Assay; sample C6.5MT-4 C.-4 wk [2]: 0.4 nM
- EC50, GLP-1 Receptor Assay; sample C6.5MT-40 C.-4 wk [2]: 0.29 nM
- EC50, Gcg Receptor Assay; sample C6.5-4 C.-4 wk [3]: 51.9 nM
- EC50, Gcg Receptor Assay; sample C6.5-40 C.-4 wk [3]: > 100 nM
- EC50, Gcg Receptor Assay; sample C6.5MT-4 C.-4 wk [3]: 54 nM
- EC50, Gcg Receptor Assay; sample C6.5MT-40 C.-4 wk [3]: > 100 nM
